The values that follow come from PMC3058308 (Nature, 2011).

For one assay, the target named is β2AR-T4L. Type of assay: binding, human.
Another assay addresses mBB-β2AR/HDL (Homo sapiens, UniProt P07550). The assay can be described thus: Bimane fluorescence spectroscopy on mBB-β2AR reconstituted in HDL particles. Type of assay: biochemical.
The target of assay [1] is β2 adrenergic receptor truncated at position 365, reconstituted in HDL particles (Homo sapiens (Human)., UniProt P07550). Nature of the assay: radioligand binding.

As usually defined, the Ki is a measure of affinity in units of concentration, obtained from inhibition or displacement. Regarding isoproterenol, the Ki on β2AR-T4L (read-out: Ki in the presence of Nb80, β2AR-T4L/HDL, Nb80 1 μM, 0.6 nM [3H]-DHA) came to 0.56 nM. Also, the “increase of affinity in the presence of Nb80” value with β2AR-T4L (β2AR-T4L/HDL with Nb80 versus without) is 60 fold.

B1: Nanobody-80 (VHH)
VHH: QVQLQESGGGLVQAGGSLRLSCAASGSIFSINTMGWYRQAPGKQRELVAAIHSGGSTNYANSVKGRFTISRDNAANTVYLQMNSLKPEDTAVYYCNVKDYGAVLYEYDYWGQGTQVTVSS
Regarding B1, the “effect on bimane fluorescence of β2AR bound to inverse agonist ICI-118,551” value with mBB-β2AR/HDL (300 nM Nb80, 1 μM ICI) is “not observed”. Further, the “effect on bimane fluorescence in the presence of isoproterenol” value with mBB-β2AR/HDL (300 nM Nb80, 10 μM isoproterenol) is “increased”. The binding result in assay [1] is reported as “binds”.
